# Test results as given in patent US20220235345A1 (University of California, published 2022).
# Ends that are not written are not given here.
# T1: separase biosensor H2B-mRuby2-Scc1(142-467)-mNeonGreen, wild-type (UniProt O60216)
# T1 sequence (O60216 whole entry, looked up): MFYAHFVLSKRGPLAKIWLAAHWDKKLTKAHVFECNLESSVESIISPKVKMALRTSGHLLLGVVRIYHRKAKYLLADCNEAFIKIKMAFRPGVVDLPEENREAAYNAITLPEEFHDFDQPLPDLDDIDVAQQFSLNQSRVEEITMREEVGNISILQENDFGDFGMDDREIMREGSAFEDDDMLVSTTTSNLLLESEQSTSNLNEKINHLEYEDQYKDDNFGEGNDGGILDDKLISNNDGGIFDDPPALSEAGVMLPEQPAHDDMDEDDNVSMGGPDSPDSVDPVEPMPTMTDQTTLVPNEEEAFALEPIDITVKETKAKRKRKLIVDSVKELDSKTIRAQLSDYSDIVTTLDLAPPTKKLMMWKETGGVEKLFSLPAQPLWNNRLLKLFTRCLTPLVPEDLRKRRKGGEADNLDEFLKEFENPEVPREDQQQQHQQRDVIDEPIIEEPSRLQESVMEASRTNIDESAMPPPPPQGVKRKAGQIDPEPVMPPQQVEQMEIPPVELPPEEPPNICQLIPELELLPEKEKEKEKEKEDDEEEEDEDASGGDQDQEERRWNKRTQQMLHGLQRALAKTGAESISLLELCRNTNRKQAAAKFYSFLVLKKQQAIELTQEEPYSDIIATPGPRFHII
# What was measured:
# [1] = test system: Mca-DDREIMREGS-Dnp peptide containing Scc1 site 1
# [2] = target: 35S-labeled human Scc1 fragment (residues 142-300) (UniProt O60216)
# [3] = target: separase biosensor H2B-mRuby2-Scc1(142-467)-mNeonGreen with 255Leu-Pro to Ala-Ala (UniProt O60216)
# [4] = target: T1, separase biosensor H2B-mRuby2-Scc1(142-467)-mNeonGreen, wild-type
# [5] = target: separase biosensor H2B-mRuby2-Scc1(142-467)-mNeonGreen with deletion of Scc1 aa 251 to 260 (UniProt O60216)
# [6] = target: catalytically-dead separase with intact autocleavage sites (UniProt Q14674)
# catalytically-dead separase with intact autocleavage sites, sequence (Q14674 whole entry S1126A/C2029S, the tested form may be a part): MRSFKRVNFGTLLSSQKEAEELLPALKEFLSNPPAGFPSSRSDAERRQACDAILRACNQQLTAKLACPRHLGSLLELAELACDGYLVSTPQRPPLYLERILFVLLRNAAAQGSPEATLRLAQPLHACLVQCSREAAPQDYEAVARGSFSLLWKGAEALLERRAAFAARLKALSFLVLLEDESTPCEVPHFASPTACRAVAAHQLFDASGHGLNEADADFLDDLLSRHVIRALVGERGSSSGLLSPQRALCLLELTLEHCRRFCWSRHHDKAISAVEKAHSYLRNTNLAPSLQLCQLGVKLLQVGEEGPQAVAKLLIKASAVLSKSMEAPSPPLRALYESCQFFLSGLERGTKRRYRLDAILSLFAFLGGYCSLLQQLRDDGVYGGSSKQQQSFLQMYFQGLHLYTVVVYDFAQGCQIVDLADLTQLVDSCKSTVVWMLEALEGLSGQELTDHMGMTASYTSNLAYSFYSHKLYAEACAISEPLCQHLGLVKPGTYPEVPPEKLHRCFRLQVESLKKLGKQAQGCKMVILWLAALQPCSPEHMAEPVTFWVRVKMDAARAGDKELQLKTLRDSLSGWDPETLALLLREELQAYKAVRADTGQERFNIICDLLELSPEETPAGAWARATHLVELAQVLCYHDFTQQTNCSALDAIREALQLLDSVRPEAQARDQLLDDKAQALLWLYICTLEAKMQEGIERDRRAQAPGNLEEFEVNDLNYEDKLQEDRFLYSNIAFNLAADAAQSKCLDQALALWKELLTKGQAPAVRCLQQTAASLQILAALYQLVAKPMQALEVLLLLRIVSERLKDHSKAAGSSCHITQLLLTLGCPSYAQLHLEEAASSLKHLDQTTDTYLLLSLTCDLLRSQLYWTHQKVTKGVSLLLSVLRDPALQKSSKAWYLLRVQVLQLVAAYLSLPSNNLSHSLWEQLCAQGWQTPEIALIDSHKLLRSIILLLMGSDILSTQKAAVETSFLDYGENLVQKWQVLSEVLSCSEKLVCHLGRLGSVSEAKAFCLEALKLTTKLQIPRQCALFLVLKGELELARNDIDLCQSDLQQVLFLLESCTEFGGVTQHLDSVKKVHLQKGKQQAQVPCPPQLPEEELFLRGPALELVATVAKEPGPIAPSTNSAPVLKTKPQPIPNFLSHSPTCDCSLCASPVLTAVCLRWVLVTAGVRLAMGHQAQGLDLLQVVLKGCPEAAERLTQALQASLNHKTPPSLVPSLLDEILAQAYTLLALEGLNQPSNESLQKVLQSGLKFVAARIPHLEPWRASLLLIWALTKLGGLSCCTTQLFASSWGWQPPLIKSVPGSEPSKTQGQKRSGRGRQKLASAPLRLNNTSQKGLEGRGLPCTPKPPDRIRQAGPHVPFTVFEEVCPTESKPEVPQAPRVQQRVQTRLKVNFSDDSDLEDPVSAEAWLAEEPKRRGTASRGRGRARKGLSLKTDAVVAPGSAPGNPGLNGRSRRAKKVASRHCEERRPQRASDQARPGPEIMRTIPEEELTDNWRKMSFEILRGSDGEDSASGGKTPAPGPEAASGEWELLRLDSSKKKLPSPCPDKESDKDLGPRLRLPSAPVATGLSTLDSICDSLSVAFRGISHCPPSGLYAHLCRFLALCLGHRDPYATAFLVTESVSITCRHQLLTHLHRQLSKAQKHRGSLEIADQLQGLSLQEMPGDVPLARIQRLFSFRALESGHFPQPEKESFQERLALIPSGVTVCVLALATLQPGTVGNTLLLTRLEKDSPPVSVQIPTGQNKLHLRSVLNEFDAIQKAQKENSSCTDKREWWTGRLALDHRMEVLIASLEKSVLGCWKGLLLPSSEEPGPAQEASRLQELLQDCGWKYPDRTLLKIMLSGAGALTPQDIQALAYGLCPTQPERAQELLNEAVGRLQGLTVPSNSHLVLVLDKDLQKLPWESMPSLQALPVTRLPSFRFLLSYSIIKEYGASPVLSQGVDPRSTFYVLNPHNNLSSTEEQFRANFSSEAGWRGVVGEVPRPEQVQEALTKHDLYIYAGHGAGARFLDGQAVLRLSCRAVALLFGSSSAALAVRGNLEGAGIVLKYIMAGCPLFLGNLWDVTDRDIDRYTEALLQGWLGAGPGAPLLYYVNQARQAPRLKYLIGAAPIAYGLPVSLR
# [7] = test system: securin^RE fragment containing residues 93-150
# [8] = target: T2, active human separase, securin-free (ClpXP-activated separase obtained from the securin-separase fusion after … (human, UniProt Q14674 1-2120)); assay: in vitro cleavage of 35S-labeled securin^RE fragments with LP mutations by separase; interaction inferred from cleavage
# T2 construct: also called active separase; apo separase; not shown: N-terminal remnant left after TEV cleavage of the fusion (3x FLAG tag between TEV site and separase)
# T2 sequence (Q14674 other isoform, or with tags, fused parts or gaps): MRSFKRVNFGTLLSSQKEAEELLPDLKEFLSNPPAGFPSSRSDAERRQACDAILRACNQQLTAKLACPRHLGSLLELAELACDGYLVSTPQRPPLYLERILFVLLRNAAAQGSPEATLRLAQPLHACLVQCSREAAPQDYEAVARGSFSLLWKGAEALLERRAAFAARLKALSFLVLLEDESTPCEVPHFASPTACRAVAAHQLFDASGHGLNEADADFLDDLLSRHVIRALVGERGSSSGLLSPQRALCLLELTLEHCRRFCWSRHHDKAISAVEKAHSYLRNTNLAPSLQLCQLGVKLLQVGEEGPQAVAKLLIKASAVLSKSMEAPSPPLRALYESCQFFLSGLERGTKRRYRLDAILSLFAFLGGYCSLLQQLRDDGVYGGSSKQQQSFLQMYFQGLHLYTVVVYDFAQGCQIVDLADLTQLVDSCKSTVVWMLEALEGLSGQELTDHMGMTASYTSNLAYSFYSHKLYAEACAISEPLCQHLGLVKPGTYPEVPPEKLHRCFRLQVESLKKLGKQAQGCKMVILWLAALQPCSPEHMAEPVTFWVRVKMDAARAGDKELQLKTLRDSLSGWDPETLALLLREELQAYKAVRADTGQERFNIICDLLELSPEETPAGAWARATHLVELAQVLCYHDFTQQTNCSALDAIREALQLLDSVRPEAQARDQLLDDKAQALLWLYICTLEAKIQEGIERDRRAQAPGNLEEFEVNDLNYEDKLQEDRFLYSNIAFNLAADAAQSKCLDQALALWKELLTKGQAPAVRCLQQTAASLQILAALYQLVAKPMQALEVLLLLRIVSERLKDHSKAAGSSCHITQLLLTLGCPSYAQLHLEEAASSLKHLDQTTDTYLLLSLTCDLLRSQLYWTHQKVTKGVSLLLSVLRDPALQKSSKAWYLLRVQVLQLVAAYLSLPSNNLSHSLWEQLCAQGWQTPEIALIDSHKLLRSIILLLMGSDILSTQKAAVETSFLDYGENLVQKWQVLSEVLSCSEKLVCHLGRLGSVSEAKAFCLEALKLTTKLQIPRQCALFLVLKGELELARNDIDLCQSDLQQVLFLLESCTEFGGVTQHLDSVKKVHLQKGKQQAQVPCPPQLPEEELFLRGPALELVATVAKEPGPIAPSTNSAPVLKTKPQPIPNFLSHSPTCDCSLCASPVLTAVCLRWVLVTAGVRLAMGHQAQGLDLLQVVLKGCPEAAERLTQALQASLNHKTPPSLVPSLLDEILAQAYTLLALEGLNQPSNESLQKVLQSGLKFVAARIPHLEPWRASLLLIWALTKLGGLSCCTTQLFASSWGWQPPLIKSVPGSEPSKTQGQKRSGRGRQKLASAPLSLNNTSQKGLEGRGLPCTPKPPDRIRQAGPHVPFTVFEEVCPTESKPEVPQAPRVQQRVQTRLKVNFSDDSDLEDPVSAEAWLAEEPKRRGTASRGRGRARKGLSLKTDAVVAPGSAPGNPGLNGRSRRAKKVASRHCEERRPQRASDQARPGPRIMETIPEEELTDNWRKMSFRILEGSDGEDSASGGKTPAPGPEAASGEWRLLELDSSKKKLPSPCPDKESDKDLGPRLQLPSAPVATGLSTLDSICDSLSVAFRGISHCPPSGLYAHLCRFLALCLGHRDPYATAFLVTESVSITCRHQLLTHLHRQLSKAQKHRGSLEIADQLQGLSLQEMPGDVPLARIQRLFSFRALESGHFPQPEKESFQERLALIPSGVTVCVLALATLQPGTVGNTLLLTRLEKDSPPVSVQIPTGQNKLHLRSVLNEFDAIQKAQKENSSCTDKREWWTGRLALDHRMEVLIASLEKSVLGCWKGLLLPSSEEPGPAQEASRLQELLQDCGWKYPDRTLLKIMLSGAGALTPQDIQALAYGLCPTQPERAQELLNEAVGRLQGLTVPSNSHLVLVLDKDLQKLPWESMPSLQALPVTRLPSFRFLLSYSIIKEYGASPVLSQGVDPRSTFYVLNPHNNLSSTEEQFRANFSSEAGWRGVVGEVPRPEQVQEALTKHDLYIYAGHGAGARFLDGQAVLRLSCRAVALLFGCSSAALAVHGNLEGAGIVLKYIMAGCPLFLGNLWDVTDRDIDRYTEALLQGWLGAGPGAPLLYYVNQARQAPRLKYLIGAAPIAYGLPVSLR
# Description: An approach for investigating the importance of ¹³⁰LPE for securin binding to separase was developed. It is known that fungal securin can be converted to a separase substrate by making mutations that convert the pseudosubstrate site into a cleavage site⁴. The equivalent mutations were made in human securin (¹¹⁸FP to RE) and this securin^RE mutant was used to test the importance of ¹³⁰LPE for securin engagement with separase. An LP sequence a few residues further downstream (¹³⁹LP) was also tested. […] A securin^RE fragment containing residues 93-150 was then tested. […] Mutation of ¹³⁹LP had no effect, except when combined with mutation of ¹³⁰LP.
molecule,measurement,setting,value
securinΔ138-separase,peptide cleavage activity (Michaelis-Menten),[1],no significant differences between the peptide cleavage activities of the three securinΔ-separase proteins and separase with no securin bound
same,cleavage of the Scc1 fragment in the gel-based assay,[2],exhibited efficient cleavage of the Scc1 substrate
separase in human U2OS cells (endogenous),biosensor cleavage efficiency,[3],reduced cleavage efficiency by 50%
same,biosensor cleavage during anaphase,[4],efficient biosensor cleavage was observed during anaphase
same,biosensor cleavage efficiency,[5],yielded identical results as the double alanine mutation
securinΔ160-separase,peptide cleavage activity (Michaelis-Menten),[1],no significant differences between the peptide cleavage activities of the three securinΔ-separase proteins and separase with no securin bound
same,cleavage of the Scc1 fragment in the gel-based assay,[2],exhibited efficient cleavage of the Scc1 substrate
securinΔ127-separase,peptide cleavage activity (Michaelis-Menten),[1],no significant differences between the peptide cleavage activities of the three securinΔ-separase proteins and separase with no securin bound
same,cleavage of the Scc1 fragment in the gel-based assay,[2],exhibited no cleavage activity in this assay
"active human separase, securin-free (ClpXP-activated separase obtained from the securin-separase fusion after TEV protease cleavage and ClpXP removal of securin)",KM,[1],KM of 70±30 µM
same,cleavage in trans,[6],Separase also cleaved a catalytically-dead separase with intact autocleavage sites
same,cleavage of an Scc1 fragment in vitro,[2],"incubation with purified ClpXP removed securin and activated separase, as evaluated by cleavage of an Scc1 fragment in vitro"
same,cleavage of securin^RE fragment,[7],This fragment was 50% cleaved by separase
"securin^RE fragment containing residues 93-150 (other, also: 35S-methionine label, Pseudosubstrate motif converted into a separase cleavage site; Translated in vitro with ZZ tag, released by TEV protease; also called 35S-labeled securin fragment (aa 93-150)) MTEKTVKAKSSVPASDDAYPEIEKFREFNPLDFESFDLPEEHQIAHLPLSGVPLMILD",binding result,[8],binds
